Measured values from paper PMC7954794, “Protein context shapes the specificity of SH3 domain-mediated interactions in vivo” (Nature Communications, 2021).

B1: S. cerevisiae Abp1 (full length; SH3 domain 535-592 mutated) / Hua2 (parent)
chain 1: MALEPIDYTTHSREIDAEYLKIVRGSDPDTTWLIISPNAKKEYEPESTGSSFHDFLQLFDETKVQYGLARVSPPGSDVEKIIIIGWCPDSAPLKTRASFAANFAAVANNLFKGYHVQVTARDEDDLDENELLMKISNAAGARYSIQTSSKQQGKASTPPVKKSFTPSKSPAPVSKKEPVKTPSPAPAAKISSRVNDNNDDDDWNEPELKERDFDQAPLKPNQSSYKPIGKIDLQKVIAEEKAKEDPRLVQKPTAAGSKIDPSSDIANLKNESKLKRDSEFNSFLGTTKPPSMTESSLKNDDDKVIKGFRNEKSPAQLWAERKAKQNSGNAETKAEAPKPEVPEDEPEGEPDVKDLKSKFEGLAASEKEEEEMENKFAPPPKKSEPTIISPKPFSKPQEPVKAEEAEQPKTDYKKIGNPLPGMHIEADNEEEPEENDDDWDDDEDEAAQPPLPSRNVASGAPVQKEEPEQEEIAPSLPSRNSIPAPKQEEAPEQAPEEEIEEEAEEAAPQLPSRSSAAPPPPPRRATPEKKPKENPWATAEYDYDAAEDNELTFVENDKIINIEFVDDDWWLGELEKDGSKGLFPSNYVSLGN
chain 2: MQQTKFGKMYLDHDSVVEYSEDEIVEADRITLGYKKRLSMIENQMRHLLEDFSLDVQQIEPILADLQKYYDAFLQLLQKRNKSLQCKRSTHQPVPSPMNSQTSTNAKVNLSGKLMKFQLNSVQKFDEENILRILQNKIEFEHYFQIDKGKKQKVLLLAVYQCLNGPTRLHKVLNIEGIIHNNSIRTILGKQVSSSKWTVFLYDVKLVLLAHRQDVPNLETSKMIVRYGDLFPCALYFKDHTAY

Variants of: B1
Assay: DHFR protein-fragment complementation in yeast (Abp1-DHFR F[1,2] x partner-DHFR F[3]), deep mutational scanning, second methotrexate selection vs reference
Details: with Hua2; S. cerevisiae, DHFR-PCA selection in liquid with methotrexate at 30 C, two 72 h selections (the score uses the second); reference = the pre-selection culture; not an affinity; value at the no-binding floor (a bound); scale: DMS score: mean over two replicates of log2(f_test/f_ref + 0.5)/ln 2, minus the synonymous-codon median

Variant	screen value
chain 1 K580P	-2.98
chain 1 L551D	< -3.06
chain 1 L551A	-3.04
chain 1 L551H	-2.98
chain 1 L551G	< -3.06
chain 1 L551K	< -3.06
chain 1 I560P	< -3.06
chain 1 G578I	< -3.06
chain 1 G578P	< -3.06
chain 1 G578W	-3.01
chain 1 G581P	< -3.06
chain 1 G581F	-3.01
chain 1 G581E	-3.02
chain 1 G581K	-3.01
chain 1 G581W	< -3.06
chain 1 G581M	< -3.06
chain 1 G581L	< -3.06
chain 1 G581Q	< -3.06
chain 1 G581H	< -3.06
chain 1 G581N	< -3.06

Variant	screen value
chain 1 G581T	< -3.06
chain 1 G581I	< -3.06
chain 1 G581Y	< -3.06
chain 1 G572L	-3.04
chain 1 G572H	< -3.06
chain 1 G572F	< -3.06
chain 1 G572A	-3.02
chain 1 G572S	< -3.06
chain 1 G572K	< -3.06
chain 1 G572I	< -3.06
chain 1 G572P	< -3.06
chain 1 G572M	< -3.06
chain 1 G572C	< -3.06
chain 1 G572D	< -3.06
chain 1 G572Y	< -3.06
chain 1 G572T	-3.04
chain 1 G572Q	< -3.06
chain 1 F583W	< -3.06
chain 1 F583T	< -3.06
chain 1 I559R	-3.03

Variant	screen value
chain 1 I559D	-3.04
chain 1 I559A	< -3.06
chain 1 I559C	-3.01
chain 1 I559K	< -3.06
chain 1 I559E	-3
chain 1 I559Q	< -3.06
chain 1 I559W	< -3.06
chain 1 I559H	< -3.06
chain 1 I559P	< -3.06
chain 1 I559G	-3.05
chain 1 I562A	< -3.06
chain 1 I562Q	< -3.06
chain 1 I562G	-3.04
chain 1 I562K	-3.03
chain 1 I562R	< -3.06
chain 1 I562D	< -3.06
chain 1 I562P	< -3.06
chain 1 I562Y	-3.03
chain 1 I562H	< -3.06
chain 1 I562E	< -3.06

Now from value to variant:

screen value	Variant
-3.04	chain 1 V588K
< -3.06	chain 1 V588S
< -3.06	chain 1 V588P
< -3.06	chain 1 V588H
< -3.06	chain 1 V588R
< -3.06	chain 1 V588Y
-3.02	chain 1 V588Q
< -3.06	chain 1 V588N
< -3.06	chain 1 L551W
< -3.06	chain 1 L551Y
< -3.06	chain 1 L551S
-3	chain 1 L582G
-3.01	chain 1 L582T
-2.99	chain 1 L582D
-3.04	chain 1 L582A
-3.03	chain 1 L582E
< -3.06	chain 1 Y541P
< -3.06	chain 1 T552W
-3.04	chain 1 T552L
< -3.06	chain 1 P584D
< -3.06	chain 1 P584K
-3.02	chain 1 P584C
-3	chain 1 P584F
-3.01	chain 1 P584Q
< -3.06	chain 1 P584G
< -3.06	chain 1 P584M
< -3.06	chain 1 P584E

screen value	Variant
-3.02	chain 1 P584W
< -3.06	chain 1 P584V
< -3.06	chain 1 P584I
< -3.06	chain 1 W569T
< -3.06	chain 1 W569N
-3.03	chain 1 W569D
-3.05	chain 1 W569H
-2.99	chain 1 W569I
< -3.06	chain 1 W569P
< -3.06	chain 1 W569A
-2.99	chain 1 W569S
< -3.06	chain 1 Y543P
-3.01	chain 1 Y543T
-3.02	chain 1 Y543L
-3.05	chain 1 Y543R
-3.04	chain 1 Y543G
< -3.06	chain 1 Y543A
< -3.06	chain 1 Y543E
< -3.06	chain 1 Y543M
< -3.06	chain 1 Y543V
< -3.06	chain 1 Y543I
< -3.06	chain 1 N561W
< -3.06	chain 1 N561F
-3.02	chain 1 N561V
-3.02	chain 1 N561L
< -3.06	chain 1 N561P
-2.99	chain 1 S585F

screen value	Variant
< -3.06	chain 1 S585Y
-2.99	chain 1 S585L
-3.01	chain 1 S585W
-3.03	chain 1 S585D
-3.04	chain 1 V554P
< -3.06	chain 1 W570I
-3.02	chain 1 W570M
< -3.06	chain 1 W570D
< -3.06	chain 1 W570P
-3.02	chain 1 W570V
< -3.06	chain 1 W570K
< -3.06	chain 1 W570T
< -3.06	chain 1 W570H
-3.03	chain 1 W570E
-3.01	chain 1 W570Q
< -3.06	chain 1 W570A
< -3.06	chain 1 L574E
-3.03	chain 1 L574F
< -3.06	chain 1 L574D
-3.03	chain 1 L574W
-3.05	chain 1 L590G
< -3.06	chain 1 L590D
< -3.06	chain 1 L590N
< -3.06	chain 1 Y587P
-3	chain 1 Y587G
-2.98	chain 1 Y587E

Same assay, conditions: with Hua2; S. cerevisiae, DHFR-PCA selection in liquid with methotrexate at 30 C, two 72 h selections (the score uses the second); reference = the pre-selection culture; value at the no-binding floor (a bound); scale: DMS score: mean over two replicates of log2(f_test/f_ref + 0.5)/ln 2, minus the synonymous-codon median

Variant	screen value
chain 1 E547R	-3.04
chain 1 D567I	< -3.06
chain 1 D567T	-3
chain 1 D567S	-3.02
chain 1 D567R	< -3.06
chain 1 D567K	-3.03
chain 1 D567P	< -3.06
chain 1 D567C	< -3.06
chain 1 D566S	< -3.06
chain 1 D566C	< -3.06
chain 1 D566R	-3.03
chain 1 D566F	-2.99
chain 1 D568M	< -3.06
chain 1 D568I	< -3.06
chain 1 D568L	< -3.06
chain 1 D568R	< -3.06
chain 1 D568K	< -3.06
chain 1 D568Q	-3.01

Results, then the variant that gave them:

screen value	Variant
-3.01	chain 1 Y541R
-2.99	chain 1 N586R
-3.02	chain 1 W569K
-2.99	chain 1 W569M
< -3.06	chain 1 S585Q
